Laboratory results: the supplement of paper PMC7877785
± gives the uncertainty stated by the source.

Experiment: self-splicing fitness, log relative to wild type (ln ratio); higher = more splicing; Tetrahymena group I intron in knt gene, E. coli kanamycin selection, DiMSum; sequences stand for … in CUCUCU…GGAGGGAAAAGUUAUCAGGCAUGCACCUGGUAGCUAGUCUUUAAACCAAUAGAUUGCAUCGGUUUAAAAGGCAAGACCGUCAAAUUGCGGGAAAGGGGUCAACAGCCGUUCAGUACCAAGUCUCAGGGGAAACUUUGAGAUGGCCUUGCAAAGGGUAUGGUAAUAAGCUGACGGACAUGGUCCUAACCACGCAGCCAAGUCCUAAGUCAACAGAUCUUCUGUUGAUAUGGAUGCAGUUCACAGACUAAAUGUCGGUCGGGGAAGAUGUAUUCUUCUCAUAAGAUAUAGUCGGACCUCUCCUUAAUGGGAGCUAGCGGAUGAAGUGAUGCAACACUGGAGCCGCUGGGAACUAAUUUGUAUGCGAAAGUAUAUUGAUUAGUUUUGGAGUACUCGUGGUCG
Summary of the method: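 Colonies from six replicate transformations of E. coli BL21(DE3) were pooled and amplicon-sequenced on an Illumina HiSeq 2500. The library placed an intron with all eight P1ex-region nucleotides randomised inside the knt kanamycin-resistance gene on pET-22b(+), and cells grew overnight at 37°C or 30°C on LB agar with or without 25 μg/mL kanamycin (plus 100 μg/mL carbenicillin, 50 μM IPTG, 0.2% rhamnose). Fitness is the DiMSum error-weighted combination of wild-type-normalised replicate fold changes, kanamycin versus none.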

## ACCUAGCAAUAUUACGUGAU
30 °C
  self-splicing fitness (ln): -1.5 ± 0.057
37 °C
  self-splicing fitness (ln): -0.344 ± 0.074

## AGUCAGCAAUAUUACGGUCA
30 °C
  self-splicing fitness (ln): -0.726 ± 0.11
37 °C
  self-splicing fitness (ln): -0.323 ± 0.1

## UGAUAGCAAUAUUACGCUUC
37 °C
  self-splicing fitness (ln): -2.45 ± 0.35

## AAGCAGCAAUAUUACGUUGA
30 °C
  self-splicing fitness (ln): -2.89 ± 0.13
37 °C
  self-splicing fitness (ln): -1.51 ± 0.11

## CCCAAGCAAUAUUACGCAAA
30 °C
  self-splicing fitness (ln): -3.35 ± 0.13
37 °C
  self-splicing fitness (ln): -2.71 ± 0.14

## AAGAAGCAAUAUUACGAAUC
30 °C
  self-splicing fitness (ln): -2.91 ± 0.15
37 °C
  self-splicing fitness (ln): -2.64 ± 0.26

## ACGUAGCAAUAUUACGGUUG
30 °C
  self-splicing fitness (ln): -2.6 ± 0.1
37 °C
  self-splicing fitness (ln): -0.902 ± 0.12

## GAAGAGCAAUAUUACGUGGC
30 °C
  self-splicing fitness (ln): -2.97 ± 0.24
37 °C
  self-splicing fitness (ln): -3.01 ± 0.33

## AACAAGCAAUAUUACGAGGU
30 °C
  self-splicing fitness (ln): -4.04 ± 0.21
37 °C
  self-splicing fitness (ln): -3.54 ± 0.17

## GCACAGCAAUAUUACGCUGA
30 °C
  self-splicing fitness (ln): -2.36 ± 0.13
37 °C
  self-splicing fitness (ln): -0.362 ± 0.088

## GGUCAGCAAUAUUACGAUAU
30 °C
  self-splicing fitness (ln): 0.154 ± 0.071
37 °C
  self-splicing fitness (ln): 0.391 ± 0.082

## GAAGAGCAAUAUUACGAGUC
30 °C
  self-splicing fitness (ln): -4.22 ± 0.46
37 °C
  self-splicing fitness (ln): -2.8 ± 0.47

## CUGUAGCAAUAUUACGUUCU
30 °C
  self-splicing fitness (ln): -3.72 ± 0.34
37 °C
  self-splicing fitness (ln): -2.94 ± 0.4

## CGAGAGCAAUAUUACGUACU
37 °C
  self-splicing fitness (ln): -0.953 ± 0.3

## AACAAGCAAUAUUACGGCAU
30 °C
  self-splicing fitness (ln): -0.11 ± 0.057
37 °C
  self-splicing fitness (ln): -0.0731 ± 0.073

## AUCAAGCAAUAUUACGGGGA
30 °C
  self-splicing fitness (ln): -1.43 ± 0.12
37 °C
  self-splicing fitness (ln): -1.49 ± 0.13

## AUCGAGCAAUAUUACGGUCC
30 °C
  self-splicing fitness (ln): -3.46 ± 0.46

## GAUGAGCAAUAUUACGUGUU
30 °C
  self-splicing fitness (ln): -3.72 ± 0.31
37 °C
  self-splicing fitness (ln): -2.47 ± 0.27

## AGGGAGCAAUAUUACGGUUG
30 °C
  self-splicing fitness (ln): -2.87 ± 0.19
37 °C
  self-splicing fitness (ln): -2.76 ± 0.36

## ACACAGCAAUAUUACGACAG
30 °C
  self-splicing fitness (ln): -1.62 ± 0.054
37 °C
  self-splicing fitness (ln): -0.914 ± 0.077

## UUCUAGCAAUAUUACGUGUU
30 °C
  self-splicing fitness (ln): -3.36 ± 0.17
37 °C
  self-splicing fitness (ln): -3.2 ± 0.19

## UAAGAGCAAUAUUACGUCUU
30 °C
  self-splicing fitness (ln): -3.28 ± 0.2
37 °C
  self-splicing fitness (ln): -1.49 ± 0.18

## AUAAAGCAAUAUUACGACAC
30 °C
  self-splicing fitness (ln): -0.305 ± 0.11
37 °C
  self-splicing fitness (ln): -0.252 ± 0.13

## AGUGAGCAAUAUUACGGACC
30 °C
  self-splicing fitness (ln): -0.918 ± 0.22
37 °C
  self-splicing fitness (ln): -0.539 ± 0.33

## CGUGAGCAAUAUUACGAACC
30 °C
  self-splicing fitness (ln): -1.44 ± 0.18
37 °C
  self-splicing fitness (ln): -0.0387 ± 0.24

## GUGCAGCAAUAUUACGUUUU
30 °C
  self-splicing fitness (ln): -2.08 ± 0.096
37 °C
  self-splicing fitness (ln): -1.69 ± 0.096

## CCCAAGCAAUAUUACGGACU
30 °C
  self-splicing fitness (ln): -3.92 ± 0.26
37 °C
  self-splicing fitness (ln): -2.6 ± 0.18

## UCCAAGCAAUAUUACGACCG
37 °C
  self-splicing fitness (ln): -1.38 ± 0.41

## UAACAGCAAUAUUACGCGCG
30 °C
  self-splicing fitness (ln): -0.332 ± 0.064
37 °C
  self-splicing fitness (ln): -0.361 ± 0.078

## UCGCAGCAAUAUUACGAAUA
30 °C
  self-splicing fitness (ln): -2.57 ± 0.22
37 °C
  self-splicing fitness (ln): -1.74 ± 0.16

## AAACAGCAAUAUUACGUAGC
30 °C
  self-splicing fitness (ln): -4.24 ± 0.16
37 °C
  self-splicing fitness (ln): -2.98 ± 0.18

## UAAGAGCAAUAUUACGGAGC
30 °C
  self-splicing fitness (ln): -3.44 ± 0.4

## CUGCAGCAAUAUUACGAAAA
37 °C
  self-splicing fitness (ln): -2.19 ± 0.31

## AUCAAGCAAUAUUACGAUAA
30 °C
  self-splicing fitness (ln): -1.99 ± 0.11
37 °C
  self-splicing fitness (ln): -0.292 ± 0.092

## AUCAAGCAAUAUUACGCUAU
30 °C
  self-splicing fitness (ln): -3.18 ± 0.16
37 °C
  self-splicing fitness (ln): -0.907 ± 0.12

## AGCUAGCAAUAUUACGGUGC
30 °C
  self-splicing fitness (ln): -2.43 ± 0.17
37 °C
  self-splicing fitness (ln): -2.03 ± 0.22

## CAAGAGCAAUAUUACGAGUC
30 °C
  self-splicing fitness (ln): -2.88 ± 0.28
37 °C
  self-splicing fitness (ln): -0.209 ± 0.28

## CAGCAGCAAUAUUACGCAUC
30 °C
  self-splicing fitness (ln): -2.71 ± 0.12
37 °C
  self-splicing fitness (ln): -1.16 ± 0.1

## CUGAAGCAAUAUUACGCAUA
30 °C
  self-splicing fitness (ln): -3.91 ± 0.3
37 °C
  self-splicing fitness (ln): -2.57 ± 0.32

## GGCCAGCAAUAUUACGCUCC
30 °C
  self-splicing fitness (ln): -3.17 ± 0.24
37 °C
  self-splicing fitness (ln): -1.38 ± 0.24

## UAGGAGCAAUAUUACGUACG
30 °C
  self-splicing fitness (ln): -1.28 ± 0.17
37 °C
  self-splicing fitness (ln): -0.737 ± 0.3

## ACCCAGCAAUAUUACGGUGU
30 °C
  self-splicing fitness (ln): -2.69 ± 0.076
37 °C
  self-splicing fitness (ln): -1.64 ± 0.11

## UGUCAGCAAUAUUACGAGCU
30 °C
  self-splicing fitness (ln): -0.801 ± 0.088
37 °C
  self-splicing fitness (ln): -0.417 ± 0.11

## CAAGAGCAAUAUUACGCCUC
30 °C
  self-splicing fitness (ln): -1.95 ± 0.33

## UCUAAGCAAUAUUACGUAUG
30 °C
  self-splicing fitness (ln): -1.95 ± 0.089
37 °C
  self-splicing fitness (ln): -1.6 ± 0.11

## AUAGAGCAAUAUUACGCUUU
30 °C
  self-splicing fitness (ln): -1.68 ± 0.13
37 °C
  self-splicing fitness (ln): -1.58 ± 0.15

## GUUUAGCAAUAUUACGGGGC
30 °C
  self-splicing fitness (ln): -2.67 ± 0.33

## GUUAAGCAAUAUUACGCAUA
30 °C
  self-splicing fitness (ln): -0.993 ± 0.091
37 °C
  self-splicing fitness (ln): -0.274 ± 0.11

## UACGAGCAAUAUUACGGGAA
30 °C
  self-splicing fitness (ln): -1.91 ± 0.2
37 °C
  self-splicing fitness (ln): -2.85 ± 0.4

## CGAUAGCAAUAUUACGCUGU
30 °C
  self-splicing fitness (ln): -3.12 ± 0.4
37 °C
  self-splicing fitness (ln): -2.15 ± 0.31
